We go through nine sequences from a protein production outcome set (Wang et al. 2014).

This data set is described as follows: label from the status in PepcDB records.
For “MRTVLNILNFVLGGFATTLGWLLATLVSIVLIFTLPLTRSCWEITKLSLVPYGNEAIHVDELNPAGKNVLLNTGGTVLNIFWLIFFGWWLCLMHIATGIAQCISIIGIPVGIANFKIAAIALWPVGRRVVSVETAQAAREANARRRFE”, the protein production entry is recorded as “failed”.
Consider “MKIAALYDIHGNYPALKEVLKQVKKLSPDLVVLGGDLIAGPMPLETLSLLKHVSTTFKTVGIMGNNDQDIVDIYAKKRVGLSRKATEQLTWIANQLSYKQVSFLRNLLPSISIGNYFFCHAVKNDNTTVFSPQQNKAYIETLFKGVQESYIICGHTHIQFELSLPNKKIINAGSIGMPFSNQFGAQWLWLDDNRIEYKRTIFNQQAAIQLISQTEYPFKNEFIANNLRSTISLSQGYSILNTLIRAQNAQHDLSLEHHHHHH”, for which the protein production result was “not failed”.
For “AVYLDCRDLQRTWEVIFNLFEPELQEFTRKVPINHIRQLVEHKHAKPVFSSPIVEGETVMVSCQFTCMEKTIKVYGFGSNKDQAKLSAAKHALQQLSKCDA” the value was “failed”; for “MEVSRALLFELGVLLAVLAVLGAVARRFALSPIPVYLLAGLSLGNGGILGVAAAGEFIATGAPIGVVLLLLALGLEFSATEFASSLRHHLPSAGVDIVLNATPGAVAGWLLGLDGVAILGLAGVTYISSSGVIARLLEDLRRLGNRETPAVLSVLVLEDFAMAAYLPLFAVLATDGSWLEAVVGMTVAIAALLGAFAASYRWGHHVGRLVTHPDSEQLLLRVLGITLIVAAVAESLHASAAVGAFLVGLTLTGETADRARMVLTPLRDLFATIFFLGIGLSVDPGKLVSMLPVALALAAVTAATKVATGMFAARREGVARRGQLRAGTALVARGEFSLIIIGLAGASIPGVAALATAYVFVMAIVGPILARYTGGGLPAAAVASN”, “failed”.
“MTTLRTLMAVSLVLNLAACGFKLRGQVSELPFERVYITAPAGLTIGSDLERVISTHTRAKVVNKAEKSEAIIQIVHAIREKRILSLSESGRVREFELVYRVAARLLDAHNAELASLQEIRLTRILPFLDAQELAKAAEEEMLYKDMQKDAVQQILRQVSAVTSAGLEHHHHHH”: the protein production result is given as “not failed”.
The result for “MRVVALVPGGIGDQILFFPTLDDLKRYYPNAQLDVVVEPRSKAAYRVSKSVNDILTFDYKDRNSLADWGNLVGTIRDREYDVVITVGQSWLVGLFLWLTGIPTRIGYQGKGRSFLTKTVPFKPSQYAAAVYHDLLAPIGITTPTPELAVNVPKPDIDWANSEQKRLGVNETGYVLIYGGSSWVSQPQALETIYPAENWQEIIQDFRQKQPDLPVVVIQGPDDEQFVRSLRDYSLDIKVTSPDNVGKLTAMIAGANLMLTTDSAPLHLSVAVQTYTIALFGSTDPVKLLPNSDKLLGIKSSTGRVADILPKAVLEKVWGGLEHHHHHH” reads “not failed”; that for “MPTLKVAYIPEHFSTPLFFAQQQGYYKAHDLSIEFVKVPEGSGRLINLLNSNEVDIAIGLTEAFIADIAKGNENIHVLDTYVKSPLLWAVSTGSNRDDVTDAKQLKRIGVSRIGSGSYVMSFVLAHQLGVPSFDQFQVLSNFKNLRDSVNLKDGVEGSDAFMWEYFTSKKYYDNHEIKQIDQIYTPWSSWVVATSSDSLQAKSDVIKNFIDAVNQGIQYYNEHVDEAIEYISSNLDYSAEDAKEWTKTVEFNSRIGKTPLDWDTIVVKTKDTLKLAGVLAESDDVILKRLNSNVKKTNL”, “not failed”.
Regarding “MRLDRNPWHWRIWVCIAVLALWPRAASADTITPERIADALSKLDALAQGAVADGGVPGLAIAVVHDDEVIFLRGFGHREAGKPEAVDADTVFQIASLSKPVSATVVAALVSDGIVSWDSKVADLDPAFRLADPYPTSQLTVRDLFSHRSGLPGTAGDDLEDIGYDRAEILHRLRFVPPSSSFRAGYSYSNFGLTEGAVAAAMPTGKSWEEVAQEKLYRPLGMASTSSRHSDFVKHADRAALHIKVDGAWAAKIERDPDAQAPAGGVSSTARDLSQWVRLILGNGVYAGKTLIAADALDQTHVPLMTRGKNPVSGGESFYGLGWNVEFGRHGLSWGHAGAFSVGARTLVTIFPQDKLGIVIIANAFPTGVPEGLSDSFADLVFDGSVQKDWVKAWDGIYAGMFGPVVEAAKATYAAPPSPARPARPASAYAGRYANDFFGDAVVASAGDGLVLKVGPHGARSYSLAHFDGDLFLTYPDAETPDRPTGVSFVVGPDGKASAMTIGFLDDNHLGTLRRVGD”, the protein production entry is “failed”.
For the sequence “MIEFTALDDLSLLRESVSLECKLAQGRDGKGALPDDFWPTYSAMANTDGGIVILGVRERKGQFEVAGIENPDKLRTELFNHLNNRQKVSVNLLRDEDVRAWPVEGKTLLVVEIPRARRQQRPVYLRGNPLGGHTYRRLHEGDRPLPDE”, the protein production result was “failed”.
